Source: the RNAGym collection of RNA variant scans (doi:10.7554/elife.80360)

B1: Hairpin Ribozyme (parent)
chain: GUCCUCUUUCACGUGCGCGUGAAAGAGAGAAGUGAACCAGAGAAACACACGUUGUGGUAUAUUACCUGGUA

Variants of: B1
Test: self-cleavage, relative activity (ratio to wild type); higher = more cleavage; co-transcriptional

Compared with GUCCUCUUUCACGUGCGCGUGAAAGAGAGAAGUGAACCAGAGAAACACACGUUUUGGUAUAUCACCUGGUA [G54U U63C], GUCCUCUUUCACGUGCGCGUGAAAGAGAGAAGUGAACCAGAGAAACACACGUGGUGGUAUAUUACCAGGUA [U53G U67A] is lower in self-cleavage: 0.214 for the first, 0.182 for the second.

Compared with GUCCUCUUUCACGUGCGCGUGAAAGAGAGAAGUGAACCAGAGAAACACACGUGGUGGUAUAUUACCCGGUA [U53G U67C], GUCCUCUUUCACGUGCGCGUGAAAGAGAGAAGUGAACCAGAGAAACACACGUGGUGGUAUAUUACCGGGUA [U53G U67G] is lower in self-cleavage: 0.136 for the first, 0.119 for the second.

First: GUCCUCUUUCACGUGCGCGUGAAAGAGAGAAGUGAACCAGAGAAACACACGUUGAGGUAUAUUACCUGGUA [U55A]
Second: GUCCUCUUUCACGUGCGCGUGAAAGAGAGAAGUGAACCAGAGAAACACACGUUGCGGUAUAUUACCUGGUA [U55C]
The self-cleavage of the first is higher: 0.258 for the first, 0.25 for the second.

Compared with GUCCUCUUUCACGUGCGCGUGAAAGAGAGAAGUGAACCAGAGAAACACACGUGGUGGCAUAUUACCUGGUA [U53G U58C], GUCCUCUUUCACGUGCGCGUGAAAGAGAGAAGUGAACCAGAGAAACACACGUGGUGGGAUAUUACCUGGUA [U53G U58G] is lower in self-cleavage: 0.987 for the first, 0.405 for the second.

First: GUCCUCUUUCACGUGCGCGUGAAAGAGAGAAGUGAACCAGAGAAACACACGUUAUGGUAUGUUACCUGGUA [G54A A61G]
Second: GUCCUCUUUCACGUGCGCGUGAAAGAGAGAAGUGAACCAGAGAAACACACGUUAUGGUAUCUUACCUGGUA [G54A A61C]
The self-cleavage of the first is higher: 0.397 for the first, 0.192 for the second.

Going from GUCCUCUUUCACGUGCGCGUGAAAGAGAGAAGUGAACCAGAGAAACACACGUUGAGGUAUAUUACCUCGUA [U55A G68C] to GUCCUCUUUCACGUGCGCGUGAAAGAGAGAAGUGAACCAGAGAAACACACGUUUUGGCAUAUUACCUGGUA [G54U U58C], the self-cleavage rises from 0.098 to 0.713.

Going from GUCCUCUUUCACGUGCGCGUGAAAGAGAGAAGUGAACCAGAGAAACACACGUUUUGGGAUAUUACCUGGUA [G54U U58G] to GUCCUCUUUCACGUGCGCGUGAAAGAGAGAAGUGAACCAGAGAAACACACGUGGUGGUACAUUACCUGGUA [U53G U60C], the self-cleavage rises from 0.401 to 1.12.

Going from GUCCUCUUUCACGUGCGCGUGAAAGAGAGAAGUGAACCAGAGAAACACACGUGGUGGUAAAUUACCUGGUA [U53G U60A] to GUCCUCUUUCACGUGCGCGUGAAAGAGAGAAGUGAACCAGAGAAACACACGUUAUGGUAUAUUACCGGGUA [G54A U67G], the self-cleavage falls from 0.44 to 0.157.

First: GUCCUCUUUCACGUGCGCGUGAAAGAGAGAAGUGAACCAGAGAAACACACGUUAUGGUAUAUUACGUGGUA [G54A C66G]
Second: GUCCUCUUUCACGUGCGCGUGAAAGAGAGAAGUGAACCAGAGAAACACACGUUGAGGUAUAUUACCUGGUU [U55A A71U]
The self-cleavage of the first is lower: 0.113 for the first, 0.18 for the second.

First: GUCCUCUUUCACGUGCGCGUGAAAGAGAGAAGUGAACCAGAGAAACACACGUUUUUGUAUAUUACCUGGUA [G54U G56U]
Second: GUCCUCUUUCACGUGCGCGUGAAAGAGAGAAGUGAACCAGAGAAACACACGUUAUGGUAUAUUACCUCGUA [G54A G68C]
The self-cleavage of the first is lower: 0.203 for the first, 0.208 for the second.

Going from GUCCUCUUUCACGUGCGCGUGAAAGAGAGAAGUGAACCAGAGAAACACACGUUUUGGUAUAUUACCUUGUA [G54U G68U] to GUCCUCUUUCACGUGCGCGUGAAAGAGAGAAGUGAACCAGAGAAACACACGUUCUGGUAUAUUACCAGGUA [G54C U67A], the self-cleavage falls from 0.302 to 0.167.

Going from GUCCUCUUUCACGUGCGCGUGAAAGAGAGAAGUGAACCAGAGAAACACACGUGGUGGUAUAUUACCUCGUA [U53G G68C] to GUCCUCUUUCACGUGCGCGUGAAAGAGAGAAGUGAACCAGAGAAACACACGUGGUGGUAUAUUACCUUGUA [U53G G68U], the self-cleavage rises from 0.18 to 0.187.

First: GUCCUCUUUCACGUGCGCGUGAAAGAGAGAAGUGAACCAGAGAAACACACGUUCUGGUAUAUUACCUGUUA [G54C G69U]
Second: GUCCUCUUUCACGUGCGCGUGAAAGAGAGAAGUGAACCAGAGAAACACACGUUAUGGUAUAUGACCUGGUA [G54A U63G]
The self-cleavage of the first is lower: 0.113 for the first, 0.172 for the second.

First: GUCCUCUUUCACGUGCGCGUGAAAGAGAGAAGUGAACCAGAGAAACACACGUUGAGGUAUAUUGCCUGGUA [U55A A64G]
Second: GUCCUCUUUCACGUGCGCGUGAAAGAGAGAAGUGAACCAGAGAAACACACGUUUUGGUAAAUUACCUGGUA [G54U U60A]
The self-cleavage of the first is lower: 0.195 for the first, 0.252 for the second.

Compared with GUCCUCUUUCACGUGCGCGUGAAAGAGAGAAGUGAACCAGAGAAACACACGUUUUGGUAGAUUACCUGGUA [G54U U60G], GUCCUCUUUCACGUGCGCGUGAAAGAGAGAAGUGAACCAGAGAAACACACGUGGUGGUAUAGUACCUGGUA [U53G U62G] is higher in self-cleavage: 0.29 for the first, 0.315 for the second.

First: GUCCUCUUUCACGUGCGCGUGAAAGAGAGAAGUGAACCAGAGAAACACACGUUGAGGUAUAUUAUCUGGUA [U55A C65U]
Second: GUCCUCUUUCACGUGCGCGUGAAAGAGAGAAGUGAACCAGAGAAACACACGUUGAGGUAUAUUACCAGGUA [U55A U67A]
The self-cleavage of the first is lower: 0.21 for the first, 0.219 for the second.

Going from GUCCUCUUUCACGUGCGCGUGAAAGAGAGAAGUGAACCAGAGAAACACACGUUGAGGUAUAUUACCGGGUA [U55A U67G] to GUCCUCUUUCACGUGCGCGUGAAAGAGAGAAGUGAACCAGAGAAACACACGUUAUGGUAUACUACCUGGUA [G54A U62C], the self-cleavage falls from 0.27 to 0.195.

First: GUCCUCUUUCACGUGCGCGUGAAAGAGAGAAGUGAACCAGAGAAACACACGUUGAGGUAUCUUACCUGGUA [U55A A61C]
Second: GUCCUCUUUCACGUGCGCGUGAAAGAGAGAAGUGAACCAGAGAAACACACGUGGGGGUAUAUUACCUGGUA [U53G U55G]
The self-cleavage of the first is lower: 0.104 for the first, 0.327 for the second.

Compared with GUCCUCUUUCACGUGCGCGUGAAAGAGAGAAGUGAACCAGAGAAACACACGUUCUGGUAUAUUACAUGGUA [G54C C66A], GUCCUCUUUCACGUGCGCGUGAAAGAGAGAAGUGAACCAGAGAAACACACGUUAUGGUAUAUUUCCUGGUA [G54A A64U] is lower in self-cleavage: 0.169 for the first, 0.114 for the second.
